Measurements as given in patent EP4667489A1 (Kyinno Biotechnology Co., Ltd., dated 2025).
Substitutions are numbered along the chain they refer to. In names and notes the source's numbering stands. Each block holds one binder with its values, some of them ahead of it.

What was measured:
[1] = target: T1, human EGFR expressed on CT26-EGFR cells (human, UniProt P00533 25-1210); experiment: cell-based or functional assay
[2] = target: T1, human EGFR expressed on CT26-EGFR cells; experiment: flow cytometry on CT26-EGFR cells
[3] = target: T2, human PDL1 expressed on 293T-PDL1 cells (human, UniProt Q9NZQ7 19-290); experiment: cell-based or functional assay
T2 sequence (Q9NZQ7 19-290): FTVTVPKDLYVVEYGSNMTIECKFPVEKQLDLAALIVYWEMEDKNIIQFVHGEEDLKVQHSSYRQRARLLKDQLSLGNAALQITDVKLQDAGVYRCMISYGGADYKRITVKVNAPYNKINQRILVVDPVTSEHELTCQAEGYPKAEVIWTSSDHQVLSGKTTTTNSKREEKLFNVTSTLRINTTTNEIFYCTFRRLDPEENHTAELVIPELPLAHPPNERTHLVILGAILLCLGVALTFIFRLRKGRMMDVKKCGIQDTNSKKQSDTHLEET

[4] = target: T3, PDL1-His (Kyinno, Cat No.: KP-1022) (UniProt Q9NZQ7 19-238, limits assumed); experiment: BLI (ForteBio Octet), PDL1-His as mobile phase
T3 construct: not shown: His tag
T3 sequence (Q9NZQ7 19-238 limits assumed): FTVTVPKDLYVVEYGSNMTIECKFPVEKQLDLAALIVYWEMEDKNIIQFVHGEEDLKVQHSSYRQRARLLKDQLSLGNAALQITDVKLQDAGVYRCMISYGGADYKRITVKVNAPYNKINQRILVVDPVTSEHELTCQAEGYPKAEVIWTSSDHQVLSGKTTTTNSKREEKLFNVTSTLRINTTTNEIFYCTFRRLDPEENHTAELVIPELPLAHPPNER

[5] = target: T1, human EGFR expressed on CT26-EGFR cells; experiment: flow cytometry, blocking of EGF-mFc binding to CT26-EGFR cells
[6] = target: T4, EGFR-His (Kyinno, Cat No.: KP-1150) (UniProt P00533 25-645, limits assumed); experiment: BLI (ForteBio Octet), EGFR-His as mobile phase
T4 construct: bought; not shown: His tag

[7] = target: T5, PDL1-mFc (fusion protein of the human PDL1 extracellular domain and mouse Fc; Kyinno, Cat No.: KP-1008) (human; mouse, UniProt Q9NZQ7 19-238); experiment: flow cytometry, blocking of PDL1-mFc binding to 293T-PD1 cells
T5 construct: extracellular domain; bought; also called human PDL1-mFc; not shown: mouse Fc
T5 sequence (Q9NZQ7 19-238): as the sequence (Q9NZQ7 19-238 limits assumed) above

[8] = target: T2, human PDL1 expressed on 293T-PDL1 cells; experiment: flow cytometry on 293T-PDL1 cells
[9] = target: T6, human LAG3 expressed on 293T-LAG3 cells (human, UniProt P18627 23-525); experiment: flow cytometry on 293T-LAG3 cells
T6 construct: whole, on cells; 293T cells stably expressing human LAG3 (Kyinno KC-0214); also called LAG3-expressing cells
T6 sequence (looked up): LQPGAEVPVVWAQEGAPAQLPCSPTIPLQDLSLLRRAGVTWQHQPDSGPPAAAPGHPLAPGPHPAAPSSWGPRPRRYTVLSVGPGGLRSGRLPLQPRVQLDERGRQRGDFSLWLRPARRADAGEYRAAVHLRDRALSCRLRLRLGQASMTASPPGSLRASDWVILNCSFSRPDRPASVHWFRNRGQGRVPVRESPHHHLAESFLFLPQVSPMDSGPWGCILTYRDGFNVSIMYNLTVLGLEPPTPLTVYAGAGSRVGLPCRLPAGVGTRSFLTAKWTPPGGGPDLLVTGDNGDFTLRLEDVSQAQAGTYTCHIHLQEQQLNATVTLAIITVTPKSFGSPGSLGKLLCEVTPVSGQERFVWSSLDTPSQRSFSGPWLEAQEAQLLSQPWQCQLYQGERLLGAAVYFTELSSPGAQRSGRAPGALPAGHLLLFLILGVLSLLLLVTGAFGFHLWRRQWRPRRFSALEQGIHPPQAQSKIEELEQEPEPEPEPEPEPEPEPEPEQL

[10] = target: T7, LAG3-mFc (fusion protein of the human LAG3 extracellular domain and mouse IgG2a-Fc) (human; mouse, UniProt P18627 23-450); experiment: flow cytometry, blocking of LAG3-mFc binding to Daudi cells
T7 construct: extracellular domain; also called human LAG3-mFc; not shown: mouse IgG2a-Fc, Genbank AAH31470.1
T7 sequence (looked up): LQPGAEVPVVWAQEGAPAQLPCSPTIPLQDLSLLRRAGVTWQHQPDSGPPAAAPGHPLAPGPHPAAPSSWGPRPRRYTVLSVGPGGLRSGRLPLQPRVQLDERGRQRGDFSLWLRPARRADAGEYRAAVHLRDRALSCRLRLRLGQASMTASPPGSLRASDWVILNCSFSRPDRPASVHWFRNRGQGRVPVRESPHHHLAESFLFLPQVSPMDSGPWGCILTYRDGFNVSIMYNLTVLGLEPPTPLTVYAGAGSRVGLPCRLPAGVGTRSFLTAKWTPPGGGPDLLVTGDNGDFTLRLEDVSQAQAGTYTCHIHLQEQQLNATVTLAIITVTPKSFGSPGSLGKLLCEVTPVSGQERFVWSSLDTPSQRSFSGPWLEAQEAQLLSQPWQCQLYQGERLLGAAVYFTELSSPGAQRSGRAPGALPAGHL

[11] = target: T8, LAG3-His (ACRO, Cat No.: LA3-H5222) (UniProt P18627 23-450); experiment: BLI (ForteBio Octet), LAG3-His as mobile phase
T8 construct: bought protein; not shown: His tag
T8 sequence (looked up): T7 sequence (looked up)

[12] = target: T9, PD1-His (Kyinno, Cat No.: KP-1023) (UniProt Q15116 25-167, limits assumed); experiment: BLI (ForteBio Octet), PD1-His as mobile phase
T9 construct: bought protein; not shown: His tag
T9 sequence (Q15116 25-167 limits assumed): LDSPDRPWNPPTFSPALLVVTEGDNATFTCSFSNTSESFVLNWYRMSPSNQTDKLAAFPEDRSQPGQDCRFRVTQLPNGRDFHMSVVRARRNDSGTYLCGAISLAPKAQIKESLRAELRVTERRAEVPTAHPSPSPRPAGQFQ

[13] = target: T10, PD1-mFc (fusion protein of the human PD1 extracellular domain and mouse IgG2a-Fc) (human; mouse, UniProt Q15116 25-170); experiment: flow cytometry, blocking of PD1-mFc binding to 293T-PDL1 cells
T10 construct: extracellular domain; not shown: mouse IgG2a-Fc, Genbank AAH31470.1
T10 sequence (Q15116 25-170): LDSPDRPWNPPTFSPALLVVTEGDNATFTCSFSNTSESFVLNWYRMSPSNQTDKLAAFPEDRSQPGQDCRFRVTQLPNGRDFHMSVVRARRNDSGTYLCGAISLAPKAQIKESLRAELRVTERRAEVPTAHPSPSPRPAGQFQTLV

[14] = target: T11, human PD1 expressed on 293T-PD1 cells (human, UniProt Q15116 25-288); experiment: flow cytometry on 293T-PD1 cells
T11 construct: whole, on cells; 293T cells stably expressing human PD1 (Kyinno KC-0204); also called PD1-expressing cells; Jurkat NFAT-PD1-luc cells
T11 sequence (Q15116 25-288): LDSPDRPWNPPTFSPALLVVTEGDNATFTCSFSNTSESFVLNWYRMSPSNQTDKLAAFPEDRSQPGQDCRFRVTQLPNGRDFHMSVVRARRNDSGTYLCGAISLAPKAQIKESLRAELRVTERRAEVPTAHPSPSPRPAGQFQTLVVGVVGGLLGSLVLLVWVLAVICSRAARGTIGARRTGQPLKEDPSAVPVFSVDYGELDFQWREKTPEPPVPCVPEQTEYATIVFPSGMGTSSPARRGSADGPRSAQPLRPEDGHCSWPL

IC50, luciferase reporter (procedure of Example 34) [1]: 1.01 nM | EC50 [2]: 0.0393 µg/mL | IC50, luciferase reporter (procedure of Example 30) [3]: 0.372 nM | Kd [4]: 0.464 nM | koff [4]: 0.000426 s⁻¹ | kon [4]: 918000 M⁻¹ s⁻¹ | IC50 [5]: 0.0155 µg/mL | Kd [6]: 4.21 nM | koff [6]: 0.00295 s⁻¹ | kon [6]: 701000 M⁻¹ s⁻¹ | IC50 [7]: 0.122 µg/mL | EC50 [8]: 0.422 µg/mL
B1: KA-2072 H22A12×58E3-CLC01 (bispecific antibody, human IgG1, kappa)
heavy 1: not shown
heavy 2: not shown
light: DIQITQSPSSLSASVGDRVTITCSATSGVSYMHWYQQKPGKAPKRLIYDTSRLASGVPSRFSGSGSGTDYTLTISSLQPEDFATYYCQQWSSNPPYTFGQGTRLEIKRTVAAPSVFIFPPSDEQLKSGTASVVCLLNNFYPREAKVQWKVDNALQSGNSQESVTEQDSKDSTYSLSSTLTLSKADYEKHKVYACEVTHQGLSSPVTKSFNRGEC
notes: EGFR×PDL1 bispecific; first heavy chain targets EGFR (hIgG1 Knob), second targets PDL1 (hIgG1 Hole); common light chain 1

IC50, luciferase reporter (procedure of Example 34) [1]: 1.05 nM | EC50 [2]: 0.0358 µg/mL | IC50, luciferase reporter (procedure of Example 30) [3]: 0.429 nM | Kd [4]: 0.602 nM | koff [4]: 0.00126 s⁻¹ | kon [4]: 2.09e+06 M⁻¹ s⁻¹ | IC50 [5]: 0.0123 µg/mL | Kd [6]: 5.64 nM | koff [6]: 0.00449 s⁻¹ | kon [6]: 796000 M⁻¹ s⁻¹ | IC50 [7]: 0.129 µg/mL | EC50 [8]: 0.521 µg/mL
B2: KA-2073 H22A12×58E3-CLC02 (bispecific antibody, human IgG1, kappa)
heavy 1: not shown
heavy 2: not shown
light: DIQLTQSPSTLSASVGDRVTITCSATSSIGYMHWYQQKPGTSPKRWIYDTSKLASGVPSRFSGSGSGTEYTLTISSLQPDDFATYYCQLWSSDPPYTFGQGTRLEIKRTVAAPSVFIFPPSDEQLKSGTASVVCLLNNFYPREAKVQWKVDNALQSGNSQESVTEQDSKDSTYSLSSTLTLSKADYEKHKVYACEVTHQGLSSPVTKSFNRGEC
notes: EGFR×PDL1 bispecific; first heavy chain targets EGFR (hIgG1 Knob), second targets PDL1 (hIgG1 Hole); common light chain 3

EC50 [9]: 0.0674 µg/mL | IC50 [10]: 0.476 µg/mL | Kd [11]: 0.174 nM | koff [11]: 0.000153 s⁻¹ | kon [11]: 881000 M⁻¹ s⁻¹
B3: KA-1782 H28G2-7V4-hIgG4M (antibody, V domains shown)
VH: QVQLQESGPGLVKPSETLSLTCTVSGYSFTSGYYWNWIRQPPGKGLEWIGYVSYFGTANYNPALKNRVTISRDTSKNQFSLKLSSVTAADTAVYYCARGEEWDWSFDVWGQGTTVTVSS
VL: DIQITQSPSSLSASVGDRVTITCSATSGVSYMHWYQQKPGKAPKRLIYDTSRLASGVPSRFSGSGSGTDYTLTISSLQPEDFATYYCQQWSSNPPYTFGQGTRLEIKR
notes: anti-LAG3 humanized antibody, human IgG4 (S228P) / kappa

Kd [12]: 6.96 nM | koff [12]: 0.00143 s⁻¹ | kon [12]: 205000 M⁻¹ s⁻¹ | IC50 [13]: 0.158 µg/mL | EC50 [14]: 0.193 µg/mL
B4: KA-1807 H107D12-10V4-hIgG4M (antibody, V domains shown)
VH: QVQLVESGGGLVKPGGSLRLSCAASGFTFSDYGMHWIRQAPGKGLEWVAYISSGSYTIYYADTVRDRFTISRDSAKNSLYLQMNSLRAEDTAVYYCVRRGPGYFGSTALDYWGQGTTVTVSS
VL: B3 VL
notes: anti-PD1 humanized antibody, human IgG4 (S228P) / kappa; also called KA-1807 H107D12-10V4-hlgG4M

IC50 [13]: 0.256 µg/mL | EC50 [14]: 0.265 µg/mL
B5: KA-1773 M107D12-10CLC1-hIgG4M (antibody, V domains shown)
VH: B4 VH with V5K, R19K, I37V, G42E, S78T, Y80F, N84T, A88S, V93M, V118L
VL: QIVLTQSPAIMSASPGEKVTMTCSATSGVSYMHWYQQKSGTSPKRWIYDTSRLASGVPARFSGSGSGTSYSLTISSMEAEDAATYYCQQWSSNPPYTFGSGTKLEIKR
notes: anti-PD1 chimeric antibody, human IgG4 (S228P) / kappa

EC50 [9]: 0.118 µg/mL | IC50 [10]: 0.805 µg/mL
B6: KA-1728 M28G2-7CLC1-hIgG4M (antibody, V domains shown)
VH: DVKLQESGPGLVKPSQSLSLTCSVTGYSFTSGYYWNWIRLFPGNKLEWMGYVSYFGTNNYNPSLKNRFSITRDTSKNQFFLKLNSVSTEDTATYYCARGEEWDWSFDVWGTGTTVTVSS
VL: B5 VL

EC50 [9]: 0.0649 µg/mL | IC50 [10]: 0.563 µg/mL
B7: KA-1733 M28G2-7CLC2-hIgG4M (antibody, V domains shown)
VH: B6 VH
VL: B5 VL with T26S, G28S, R52K

IC50 [13]: 0.218 µg/mL | EC50 [14]: 0.272 µg/mL
B8: KA-1774 M107D12-10CLC2-hIgG4M (antibody, V domains shown)
VH: B4 VH with V5K, R19K, I37V, G42E, S78T, Y80F, N84T, A88S, V93M, V118L
VL: B5 VL with T26S, G28S, R52K
